The source of these data is patent publication US20240043508A1 (KOOKMIN UNIVERSITY INDUSTRY ACADEMY COOPERATION FOUNDATION, published 2024).

In assay [1] the target is SARS-CoV-2 S protein of the wild-type, on pseudotyped lentiviral particles (SARS-CoV-2). As to the kind of experiment: cell-based or functional assay.
The target in assay [2] is T1, SARS-CoV-2 S protein of B.1.1.7 (alpha) variant, on pseudotyped MLV particles (SARS-CoV-2, UniProt P0DTC2 14-1273). As to the kind of experiment: cell-based or functional assay.
Assay [3] concerns the target SARS-CoV-2 S protein of beta variant, on pseudotyped MLV particles (SARS-CoV-2, UniProt P0DTC2 14-1273). As to the kind of experiment: cell-based or functional assay.
Assay [4] deals with SARS-CoV-2 S protein of gamma variant, on pseudotyped MLV particles (SARS-CoV-2, UniProt P0DTC2 14-1273). In words: cell-based or functional assay.
Assay [5] deals with T2, SARS-CoV-2 S protein of B.1.617.2 (delta) variant, on pseudotyped MLV particles (SARS-CoV-2, UniProt P0DTC2 14-1273). In words: cell-based or functional assay.
Assay [6] has as its target T3, SARS-CoV-2 S protein of B.1.617 (kappa) variant, on pseudotyped MLV particles (SARS-CoV-2, UniProt P0DTC2 14-1273). In words: cell-based or functional assay.
Assay [7] concerns the target T1, SARS-CoV-2 S protein of B.1.1.7 (alpha) …. As to the kind of experiment: cell-based or functional assay. The source holds these as a separate data set.
Assay [8] concerns the target T2, SARS-CoV-2 S protein of B.1.617.2 …. As to the kind of experiment: cell-based or functional assay. The source holds these as a separate data set.
In assay [9] the target is T3, SARS-CoV-2 S protein of B.1.617 (kappa) …. In words: cell-based or functional assay. The source holds these as a separate data set.
Assay [10] concerns the target T4, SARS-CoV-2 RBD, Alpha (B.1.1.7) variant (SARS-CoV-2, UniProt P0DTC2 319-541).
T4 construct: domain: RBD
In words: SPR, RBD immobilised. A general note: Surface plasmon resonance follows binding to a sensor surface in real time, without labels.

For assay [11], the target named is T5, SARS-CoV-2 RBD, Beta (B.1.351) variant (SARS-CoV-2, UniProt P0DTC2 319-541).
T5 construct: domain: RBD
As to the kind of experiment: SPR, RBD immobilised.

Assay [12] concerns the target T6, SARS-CoV-2 RBD, Gamma (P.1) variant (SARS-CoV-2, UniProt P0DTC2 319-541).
T6 construct: domain: RBD
In words: SPR, RBD immobilised.

In assay [13] the target is T7, SARS-CoV-2 RBD, Delta (B.1.617.2) variant (SARS-CoV-2, UniProt P0DTC2 319-541).
T7 construct: domain: RBD
As to the kind of experiment: SPR, RBD immobilised.

Assay [14] concerns the target T8, SARS-CoV-2 RBD, Kappa (B.1.617.1) variant (SARS-CoV-2, UniProt P0DTC2 319-541).
T8 construct: domain: RBD
As to the kind of experiment: SPR, RBD immobilised.

Assay [15] has as its target T4, SARS-CoV-2 RBD, Alpha (B.1.1.7) variant. In words: SPR, RBD immobilised, 1:1 model.
Assay [16] deals with T5, SARS-CoV-2 RBD, Beta (B.1.351) variant. In words: SPR, RBD immobilised, 1:1 model.
Assay [17] addresses T6, SARS-CoV-2 RBD, Gamma (P.1) variant. As to the kind of experiment: SPR, RBD immobilised, 1:1 model.
Assay [18] addresses T7, SARS-CoV-2 RBD, Delta (B.1.617.2) …. As to the kind of experiment: SPR, RBD immobilised, 1:1 model.
The target in assay [19] is T8, SARS-CoV-2 RBD, Kappa (B.1.617.1) …. In words: SPR, RBD immobilised, 1:1 model.
In assay [20] the target is T5, SARS-CoV-2 RBD, Beta (B.1.351) variant. As to the kind of experiment: competition ELISA: RBD-His with antibody, binding to coated hACE2-Fc. (An ELISA detects its analyte on a solid surface through an enzyme-linked reagent.)
Assay [21] concerns the target T6, SARS-CoV-2 RBD, Gamma (P.1) variant. The assay is described as above.
Assay [22] deals with T7, SARS-CoV-2 RBD, Delta (B.1.617.2) …. The description is as above.
Assay [23] concerns the target T8, SARS-CoV-2 RBD, Kappa (B.1.617.1) …. The description is as above.
Assay [24] concerns the target SARS-CoV-2 RBD protein (Fc-tagged) (SARS-CoV-2, UniProt P0DTC2 319-541).

B1: K202.A (bispecific antibody)
heavy: EVQLLESGGGLVQPGGSLRLSCAASGFTFSDYAMSWVRQAPGKGLEWVSWIYSGSGNKYYADSVKGRFTISRDNSKNTLYLQMNSLRAEDTAVYYCARFPIARTSNSQSSYDGMDVWGQGTLVTVSSASTKGPSVFPLAPCSRSTSESTAALGCLVKDYFPEPVTVSWNSGALTSGVHTFPAVLQSSGLYSLSSVVTVPSSSLGTKTYTCNVDHKPSNTKVDKRVESKYGPPCPPCPPCPAPEFLGGPSVFLFPPKPKDTLMISRTPEVTCVVVDVSQEDPEVQFNWYVDGVEVHNAKTKPREEQFNSTYRVVSVLTVLHQDWLNGKEYKCKVSNKGLPSSIEKGQPREPQVYTLPPSQEEMTKNQVSLTCLVKGFYPSDIAVEWESNGQPENNYKTTPPVLDSDGSFFLYSRLTVDKSRWQEGNVFSCSVMHEALHNHYTQKSLSLSLGK
light: QSVLTQPPSASGTPGQRVTISCSGSSSNIGSNAVSWYQQLPGTAPKLLIYADNKRPSGVPDRFSGSKSGTSASLAISGLRSEDEADYYCGAWDSSLNAYVFGGGTKLTVLVAAPSVFIFPPSDEQLKSGTASVVCLLNNFYPREAKVQWKVDNALQSGNSQESVTEQDSKDSTYSLSSTLTLSKADYEKHKVYACEVTHQGLSSPVTKSFNRGEC
scFv: EVQLLESGGGLVQPGGSLRLSCAASGFTFSSYDMSWVRQAPGKGLEWVSGISYSGGSTYYADSVKGRFTISRDNSKNTLYLQMNSLRAEDTAVYYCARDVNFVPLVTFDYWGQGTLVTVSSGGGGSGGGGSGGGGSQSVLTQPPSASGTPGQRVTLSCTGSSSNIGSNSVTWYQQLPGTAPKLLIYDDNQRPSGVPDRFSGSKSGTSASLAISGLRSEDEADYYCGTWDYSLSAYVFGGGTKLTVL
As for B1, the “IC50 (nM), pseudotyped virus infection” value in assay [1] was found to be 0.27 nM; in assay [2], 0.18 nM; in [3], 0.46 nM; in [4], 1.74 nM; in assay [5], 1.83 nM; in assay [6], 0.24 nM.

B2: K202.B (bispecific antibody)
heavy: EVQLLESGGGLVQPGGSLRLSCAASGFTFSDYAMSWVRQAPGKGLEWVSWIYSGSGNKYYADSVKGRFTISRDNSKNTLYLQMNSLRAEDTAVYYCARFPIARTSNSQSSYDGMDVWGQGTLVTVSSASTKGPSVFPLAPCSRSTSESTAALGCLVKDYFPEPVTVSWNSGALTSGVHTFPAVLQSSGLYSLSSVVTVPSSSLGTKTYTCNVDHKPSNTKVDKRVESKYGPPCPPCPPCPAPEFLGGPSVFLFPPKPKDTLMISRTPEVTCVVVDVSQEDPEVQFNWYVDGVEVHNAKTKPREEQFNSTYRVVSVLTVLHQDWLNGKEYKCKVSNKGLPSSIEKGQPREPQVYTLPPSQEEMTKNQVSLTCLVKGFYPSDIAVEWESNGQPENNYKTTPPVLDSDGSFFLYSRLTVDKSRWQEGNVFSCSVMHEALHNHYTQKSLSLSLGK
light: QSVLTQPPSASGTPGQRVTISCSGSSSNIGSNAVSWYQQLPGTAPKLLIYADNKRPSGVPDRFSGSKSGTSASLAISGLRSEDEADYYCGAWDSSLNAYVFGGGTKLTVLVAAPSVFIFPPSDEQLKSGTASVVCLLNNFYPREAKVQWKVDNALQSGNSQESVTEQDSKDSTYSLSSTLTLSKADYEKHKVYACEVTHQGLSSPVTKSFNRGEC
scFv: EVQLLESGGGLVQPGGSLRLSCAASGFTFSSYDMSWVRQAPGKGLEWVSGISYSGGSTYYADSVKGRFTISRDNSKNTLYLQMNSLRAEDTAVYYCARDVNFVPLVTFDYWGQGTLVTVSSGGGGSGGGGSGGGGSQSVLTQPPSASGTPGQRVTLSCTGSSSNIGSNSVTWYQQLPGTAPKLLIYDDNQRPSGVPDRFSGSKSGTSASLAISGLRSEDEADYYCGTWDYSLSAYVFGGGTKLTVL
Regarding B2, the “IC50 (nM), pseudotyped virus infection” value in assay [1] stood at 0.16 nM; in [2] it was 0.15 nM; in assay [3] it was 0.1 nM; in assay [4], 1.04 nM; in [5], 0.13 nM; in assay [6] it was 0.05 nM.

B3: RD3 (antibody, V domains shown)
VH: EVQLLESGGGLVQPGGSLRLSCAASGFTFSDYAMSWVRQAPGKGLEWVSWIYSGSGNKYYADSVKGRFTISRDNSKNTLYLQMNSLRAEDTAVYYCARFPIARTSNSQSSYDGMDVWGQGTLVTVSS
VL: QSVLTQPPSASGTPGQRVTISCSGSSSNIGSNAVSWYQQLPGTAPKLLIYADNKRPSGVPDRFSGSKSGTSASLAISGLRSEDEADYYCGAWDSSLNAYVFGGGTKLTVL
notes: also called K102.1
As for B3, the “IC50 (nM), pseudovirus neutralization, luciferase in 293T/hACE2 cells” value in assay [7] was determined as 6.16 nM; in assay [8], 4.48 nM; in assay [9], 94.8 nM. Further, the “IC50 (nM), pseudotyped virus infection” value in assay [2] came out at 6.16 nM; in assay [5], 4.48 nM.

B4: RB6 (antibody, V domains shown)
VH: EVQLLESGGGLVQPGGSLRLSCAASGFTFSSYDMSWVRQAPGKGLEWVSGISYSGGSTYYADSVKGRFTISRDNSKNTLYLQMNSLRAEDTAVYYCARDVNFVPLVTFDYWGQGTLVTVSS
VL: QSVLTQPPSASGTPGQRVTLSCTGSSSNIGSNSVTWYQQLPGTAPKLLIYDDNQRPSGVPDRFSGSKSGTSASLAISGLRSEDEADYYCGTWDYSLSAYVFGGGTKLTVL
notes: also called K102.2
Consider B4, for which the Kd (commonly the constant that tells how readily two partners part at equilibrium) was 3.62 nM in assay [10]; 1.6 nM in assay [11]; 2.07 nM in assay [12]; 1.53 nM in assay [13]; 1.68 nM in [14]; 3.62 nM in assay [15]. The Kd amounted to 1.6 nM in assay [16], 2.07 nM in assay [17], 1.53 nM in assay [18] and 1.68 nM in assay [19]. Also, the kon (as a rule, the rate constant with which the complex forms) in assay [10] is 154000 M⁻¹ s⁻¹; in assay [11], 492000 M⁻¹ s⁻¹; in assay [12], 454000 M⁻¹ s⁻¹; in [13], 333000 M⁻¹ s⁻¹; in assay [14], 407000 M⁻¹ s⁻¹; in assay [15], 154000 M⁻¹ s⁻¹. Further, the kon in assay [16] worked out at 492000 M⁻¹ s⁻¹; in assay [17], 454000 M⁻¹ s⁻¹; in assay [18] it was 333000 M⁻¹ s⁻¹; in [19] it was 407000 M⁻¹ s⁻¹. Besides, the IC50 – broadly, the point on the concentration scale where inhibition reaches its midpoint – in assay [20] came out at 0.86 nM; in assay [21], 3.23 nM; in [22], 1.14 nM; in assay [23], 0.4 nM.

B5: RG6 (antibody, V domains shown)
VH: EVQLLESGGGLVQPGGSLRLSCAASGFTFSDYSMSWVRQAPGKGLEWVSGIYHSDGSKYYADSVKGRFTISRDNSKNTLYLQMNSLRAEDTAVYYCARFDPVFDYWGQGTLVTVSS
VL: QSVLTQPPSASGTPGQRVTISCTGSSSNIGSNAVNWYQQLPGTAPKLLIYADSNRPSGVPDRFSGSKSGTSASLAISGLRSEDEADYYCGAWDASLSAYVFGGGTKLTVL
Turning to B5, in assay [24], half-maximal inhibition (IC50) was put at 84 nM.
